Patent US20240352102A1
Several values for one entry are separate records, joined by “and”; a condition that tells them apart may be missing. Equal values may be shown once.

What was measured:
Assay in all cases: peptide microarray
Peptide_059 = molecular target: T1, Peptide_059
T1 sequence (peptide): STENLKHQPGGGKVQ

Peptide_060 = molecular target: T2, Peptide_060
T2 sequence (peptide): LKHQPGGGKVQIINK

Peptide_061 = molecular target: T3, Peptide_061
T3 sequence (peptide): PGGGKVQIINKKLDL

Peptide_051 = molecular target: T4, Peptide_051
T4 sequence (peptide): RTPPKSPSSAKSRLQ

B1: mAb TRC35 (antibody, V domains shown)
VH: QVQLQQPGTELVKPGASVKLSCKASGYTFTSYWLQWVKQRPGQGLEWIGEIDPSDSYTNYNQKFKGKATLTVDTSSSTAYMQLSSLTSEDSAVYYCATLTGSWGQGTTLAVSS
VL: DVLLTQTPLSLPVSLGDQASISCRASQSIVDSNGNTFLEWYLQKSGQSPKVLIYKVSNRFSGVPDRFSGRGSGTDFTLKISRVEAEDLGVYYCFQGSHVPYTFGGGTKLEIK
fluorescence intensity (Peptide_059): 204 and 126 | fluorescence intensity (Peptide_060): 793 and 655 | fluorescence intensity (Peptide_061): 157 and 114 | fluorescence intensity (Peptide_051): 151 and 83.3
